Experimental data published in patent publication US20110091562A1 (GEORGIA TECH RESEARCH, published 2011).

How the values were obtained:
[1] = target: T1, erythropoietin-producing hepatocellular (Eph) A2 receptor (UniProt P29317 24-976, limits assumed); experiment: flow cytometry on Hey cells, 0.8 mg/mL fluorescent nanogels, 4 h incubation; reference is SCR-labeled nanogels
T1 construct: whole, on cells; Endogenous receptor on ovarian cancer cell lines
Experimental: (§1) Flow cytometry. Hey cells were plated at 2.5×10⁵ cells/well in a 12-well, cell culture plate. Cells were allowed to adhere overnight in an incubator at 37° C. in a 5% CO₂ atmosphere. Cells were washed, and fresh medium was added containing YSA-pNIPMAm or SCR-pNIPMAm nanogels at a concentration of 0.8 mg/mL and incubated for four hours. Following incubation, the cells were washed with PBS and removed from the plate by Trypsin-EDTA treatment. The cells were washed with PBS and fixed with 2% (v/v) paraformaldehyde. Cells were analyzed using a LSR Flow Cytometer (BD Biosciences). Data analysis was carried out using FlowJo software.

[2] = target: T1, erythropoietin-producing hepatocellular …; experiment: flow cytometry on Hey cells after 4 h incubation with fluorescent nanogels
Experimental: as §1

T1 sequence (P29317 24-976 limits assumed): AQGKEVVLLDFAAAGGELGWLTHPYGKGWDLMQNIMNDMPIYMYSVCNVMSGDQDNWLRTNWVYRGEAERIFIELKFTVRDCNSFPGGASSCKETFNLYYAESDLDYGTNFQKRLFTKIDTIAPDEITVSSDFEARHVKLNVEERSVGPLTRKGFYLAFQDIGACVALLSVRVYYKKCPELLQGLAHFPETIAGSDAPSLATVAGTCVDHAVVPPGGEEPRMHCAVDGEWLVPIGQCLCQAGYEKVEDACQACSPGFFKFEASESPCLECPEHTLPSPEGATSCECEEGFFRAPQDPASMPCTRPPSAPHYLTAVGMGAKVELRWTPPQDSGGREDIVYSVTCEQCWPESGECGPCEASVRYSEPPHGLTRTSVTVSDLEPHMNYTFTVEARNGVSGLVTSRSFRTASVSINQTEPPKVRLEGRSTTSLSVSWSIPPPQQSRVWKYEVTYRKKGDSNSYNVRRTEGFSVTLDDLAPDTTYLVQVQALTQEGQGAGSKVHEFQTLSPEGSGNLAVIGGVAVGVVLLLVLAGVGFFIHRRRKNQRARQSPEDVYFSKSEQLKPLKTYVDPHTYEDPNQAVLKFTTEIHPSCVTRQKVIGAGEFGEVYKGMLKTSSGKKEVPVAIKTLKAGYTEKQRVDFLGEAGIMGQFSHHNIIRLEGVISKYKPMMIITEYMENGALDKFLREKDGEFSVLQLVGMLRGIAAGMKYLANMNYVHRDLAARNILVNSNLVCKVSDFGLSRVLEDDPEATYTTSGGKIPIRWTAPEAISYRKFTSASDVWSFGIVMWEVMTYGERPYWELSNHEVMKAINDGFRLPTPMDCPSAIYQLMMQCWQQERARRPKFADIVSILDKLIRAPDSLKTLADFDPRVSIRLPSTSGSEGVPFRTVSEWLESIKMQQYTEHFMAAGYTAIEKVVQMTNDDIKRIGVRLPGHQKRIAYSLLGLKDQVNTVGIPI

B1: YSA peptide (YSAYPDSVPMMSC) conjugated to core/shell pNIPMAm nanogels (peptide)
peptide: YSAYPDSVPMMSC
modifications: C-terminal cysteine coupled by maleimide (epsilon-maleimidocaproic acid, EMCA) to primary amines of the nanogel shell
notes: The peptide that was made and conjugated carries the C-terminal Cys; also called YSA-conjugated nanogels; YSA-pNIPMAm nanogels
Q: How did the “fold fluorescence relative to SCR-labeled nanogels” value [1] turn out when B1 was run?
A: ~10 fold

B2: Scrambled (SCR) peptide (DYPSMAMYSPSVC) conjugated to core/shell pNIPMAm nanogels (peptide)
peptide: DYPSMAMYSPSVC
modifications: C-terminal cysteine coupled by maleimide (EMCA) to primary amines of the nanogel shell
notes: Control peptide with the same amino acid composition as YSA, tethered to the same nanogels; also called SCR-pNIPMAm nanogels; SCR-labeled nanogels
Q: Does B2 bind [2]?
A: no binding (tested: 0.8 mg/mL nanogels)
